B1: EEHEE_rd4_0003 (parent)
chain: KKVTINGVEIKFNNPEEAVKFALELAKRLNLRIEFHGDQIKIE

Variants of: B1
Test: folding stability dG (cDNA display proteolysis); higher = more stable
Conditions: PBS, room temperature

Row | Variant | folding stability dG
1 | KKVFINGVEIKFNNPEEAVKFALELAKRLNLRIEFHGDQIKIE [T4F] | 3.25 kcal/mol
2 | KKVSINGVEIKFNNPEEAVKFALELAKRLNLRIEFHGDQIKIE [T4S] | 2.38 kcal/mol
3 | KKVRINGVEIKFNNPEEAVKFALELAKRLNLRIEFHGDQIKIE [T4R] | 2.18 kcal/mol
4 | KKVKINGVEIKFNNPEEAVKFALELAKRLNLRIEFHGDQIKIE [T4K] | 2.29 kcal/mol
5 | KKVPINGVEIKFNNPEEAVKFALELAKRLNLRIEFHGDQIKIE [T4P] | 1.76 kcal/mol
6 | KKVLINGVEIKFNNPEEAVKFALELAKRLNLRIEFHGDQIKIE [T4L] | 2.95 kcal/mol
7 | KKVQINGVEIKFNNPEEAVKFALELAKRLNLRIEFHGDQIKIE [T4Q] | 2.17 kcal/mol
8 | KKVMINGVEIKFNNPEEAVKFALELAKRLNLRIEFHGDQIKIE [T4M] | 2.74 kcal/mol
9 | KKVHINGVEIKFNNPEEAVKFALELAKRLNLRIEFHGDQIKIE [T4H] | 2.26 kcal/mol
10 | KKVDINGVEIKFNNPEEAVKFALELAKRLNLRIEFHGDQIKIE [T4D] | 1.7 kcal/mol
11 | KKVIINGVEIKFNNPEEAVKFALELAKRLNLRIEFHGDQIKIE [T4I] | 3 kcal/mol
12 | KKVYINGVEIKFNNPEEAVKFALELAKRLNLRIEFHGDQIKIE [T4Y] | 3.11 kcal/mol
13 | KKVNINGVEIKFNNPEEAVKFALELAKRLNLRIEFHGDQIKIE [T4N] | 2.21 kcal/mol
14 | KKVWINGVEIKFNNPEEAVKFALELAKRLNLRIEFHGDQIKIE [T4W] | 3.01 kcal/mol
15 | KKVEINGVEIKFNNPEEAVKFALELAKRLNLRIEFHGDQIKIE [T4E] | 1.98 kcal/mol
16 | KKVTINHVEIKFNNPEEAVKFALELAKRLNLRIEFHGDQIKIE [G7H] | 1.89 kcal/mol
17 | KKVTINDVEIKFNNPEEAVKFALELAKRLNLRIEFHGDQIKIE [G7D] | 1.89 kcal/mol
18 | KKVTINFVEIKFNNPEEAVKFALELAKRLNLRIEFHGDQIKIE [G7F] | 2.37 kcal/mol
19 | KKVTINAVEIKFNNPEEAVKFALELAKRLNLRIEFHGDQIKIE [G7A] | 1.95 kcal/mol
20 | KKVTINEVEIKFNNPEEAVKFALELAKRLNLRIEFHGDQIKIE [G7E] | 1.78 kcal/mol

Row | Variant | folding stability dG
21 | KKVTINCVEIKFNNPEEAVKFALELAKRLNLRIEFHGDQIKIE [G7C] | 3.05 kcal/mol
22 | KKVTIMGVEIKFNNPEEAVKFALELAKRLNLRIEFHGDQIKIE [N6M] | 2.65 kcal/mol
23 | KKVTIQGVEIKFNNPEEAVKFALELAKRLNLRIEFHGDQIKIE [N6Q] | 2.14 kcal/mol
24 | KKVTIYGVEIKFNNPEEAVKFALELAKRLNLRIEFHGDQIKIE [N6Y] | 2.75 kcal/mol
25 | KKVTIRGVEIKFNNPEEAVKFALELAKRLNLRIEFHGDQIKIE [N6R] | 2.25 kcal/mol
26 | KKVTIKGVEIKFNNPEEAVKFALELAKRLNLRIEFHGDQIKIE [N6K] | 2.17 kcal/mol
27 | KKVTIAGVEIKFNNPEEAVKFALELAKRLNLRIEFHGDQIKIE [N6A] | 2.41 kcal/mol
28 | KKVTISGVEIKFNNPEEAVKFALELAKRLNLRIEFHGDQIKIE [N6S] | 2.11 kcal/mol
29 | KKVTIPGVEIKFNNPEEAVKFALELAKRLNLRIEFHGDQIKIE [N6P] | 1.57 kcal/mol
30 | KKVTIWGVEIKFNNPEEAVKFALELAKRLNLRIEFHGDQIKIE [N6W] | 3.34 kcal/mol
31 | KKVTIDGVEIKFNNPEEAVKFALELAKRLNLRIEFHGDQIKIE [N6D] | 2.25 kcal/mol
32 | KKVTIEGVEIKFNNPEEAVKFALELAKRLNLRIEFHGDQIKIE [N6E] | 1.91 kcal/mol
33 | KKVTIIGVEIKFNNPEEAVKFALELAKRLNLRIEFHGDQIKIE [N6I] | 2.41 kcal/mol
34 | KKVTICGVEIKFNNPEEAVKFALELAKRLNLRIEFHGDQIKIE [N6C] | 4.2 kcal/mol
35 | KKVTIGGVEIKFNNPEEAVKFALELAKRLNLRIEFHGDQIKIE [N6G] | 2.5 kcal/mol
36 | KKVTITGVEIKFNNPEEAVKFALELAKRLNLRIEFHGDQIKIE [N6T] | 2.01 kcal/mol
37 | KKVTIHGVEIKFNNPEEAVKFALELAKRLNLRIEFHGDQIKIE [N6H] | 2.45 kcal/mol
38 | KKVTIFGVEIKFNNPEEAVKFALELAKRLNLRIEFHGDQIKIE [N6F] | 3.23 kcal/mol
39 | KKVTIVGVEIKFNNPEEAVKFALELAKRLNLRIEFHGDQIKIE [N6V] | 2.52 kcal/mol
40 | KKVTILGVEIKFNNPEEAVKFALELAKRLNLRIEFHGDQIKIE [N6L] | 2.87 kcal/mol

Row | Variant | folding stability dG
41 | KKVTGNGVEIKFNNPEEAVKFALELAKRLNLRIEFHGDQIKIE [I5G] | 1.72 kcal/mol
42 | KKVTCNGVEIKFNNPEEAVKFALELAKRLNLRIEFHGDQIKIE [I5C] | 3.46 kcal/mol
43 | KKVTMNGVEIKFNNPEEAVKFALELAKRLNLRIEFHGDQIKIE [I5M] | 2.07 kcal/mol
44 | KKVTLNGVEIKFNNPEEAVKFALELAKRLNLRIEFHGDQIKIE [I5L] | 2.39 kcal/mol
45 | KKVTSNGVEIKFNNPEEAVKFALELAKRLNLRIEFHGDQIKIE [I5S] | 1.46 kcal/mol
46 | KKVTPNGVEIKFNNPEEAVKFALELAKRLNLRIEFHGDQIKIE [I5P] | 1.79 kcal/mol
47 | KKVTENGVEIKFNNPEEAVKFALELAKRLNLRIEFHGDQIKIE [I5E] | 1.56 kcal/mol
48 | KKVTTNGVEIKFNNPEEAVKFALELAKRLNLRIEFHGDQIKIE [I5T] | 1.59 kcal/mol
49 | KKVTHNGVEIKFNNPEEAVKFALELAKRLNLRIEFHGDQIKIE [I5H] | 1.93 kcal/mol
50 | KKVTYNGVEIKFNNPEEAVKFALELAKRLNLRIEFHGDQIKIE [I5Y] | 2.71 kcal/mol
51 | KKVTVNGVEIKFNNPEEAVKFALELAKRLNLRIEFHGDQIKIE [I5V] | 2.47 kcal/mol
52 | KKVTQNGVEIKFNNPEEAVKFALELAKRLNLRIEFHGDQIKIE [I5Q] | 1.66 kcal/mol
53 | KKVTANGVEIKFNNPEEAVKFALELAKRLNLRIEFHGDQIKIE [I5A] | 1.71 kcal/mol
54 | KKVTDNGVEIKFNNPEEAVKFALELAKRLNLRIEFHGDQIKIE [I5D] | 1.54 kcal/mol
55 | KKVTRNGVEIKFNNPEEAVKFALELAKRLNLRIEFHGDQIKIE [I5R] | 1.58 kcal/mol
56 | KKVTNNGVEIKFNNPEEAVKFALELAKRLNLRIEFHGDQIKIE [I5N] | 1.47 kcal/mol
57 | KKVTWNGVEIKFNNPEEAVKFALELAKRLNLRIEFHGDQIKIE [I5W] | 2.83 kcal/mol
58 | KKVTFNGVEIKFNNPEEAVKFALELAKRLNLRIEFHGDQIKIE [I5F] | 2.8 kcal/mol
59 | KKVTKNGVEIKFNNPEEAVKFALELAKRLNLRIEFHGDQIKIE [I5K] | 1.54 kcal/mol
